Reference: patent US9260500B2, “Peptide and use thereof” (Takeda Pharmaceutical Company Limited, priority 2009, dated 2016)
Starred links: 1 amine or outer side, 2 acyl side, 3 side chain; linkers in the order of their positions; H or OH if unused. Non-standard residues stand in square brackets, D forms with d. Primed or numbered codes have the meaning given here. No end group written: not given here. *: point of attachment. Asn(Me)″ = Nω-methylasparagine, CNC(=O)C[C@H](N[*:1])C(=O)[*:2]; Cyclohexanecarbonyl = O=C(C1CCCCC1)*; Phe(2-Me) = Cc1ccccc1C[C@H](N)C(=O)O; hArg = N=C(N)NCCCC[C@H](N)C(=O)O; 4Pal = N[C@@H](Cc1ccncc1)C(=O)O; Aad = N[C@@H](CCCC(=O)O)C(=O)O; Cha = N[C@@H](CC1CCCCC1)C(=O)O; dIva = CC[C@@](C)(N)C(=O)O; dPip = O=C(O)[C@H]1CCCCN1; Iva = CC[C@](C)(N)C(=O)O; Nle = CCCC[C@H](N)C(=O)O; Abu = CC[C@H](N)C(=O)O; Aib = CC(C)(N)C(=O)O; Bz = O=C(c1ccccc1)*

What was measured:
human Y2 receptor [1] = target: T1, human Y2 receptor (Homo sapiens, UniProt P49146); assay: Receptor Binding Assay (RBA) for Human Y2, [125I]-PYY displacement on hY2R/CHO membrane fraction; settings: IC50 of test compound/IC50 of PYY(3-36) (PYY(3-36) taken as 1)
T1 construct: expressed in transfected cells; membrane fraction
T1 sequence (P49146 1-381): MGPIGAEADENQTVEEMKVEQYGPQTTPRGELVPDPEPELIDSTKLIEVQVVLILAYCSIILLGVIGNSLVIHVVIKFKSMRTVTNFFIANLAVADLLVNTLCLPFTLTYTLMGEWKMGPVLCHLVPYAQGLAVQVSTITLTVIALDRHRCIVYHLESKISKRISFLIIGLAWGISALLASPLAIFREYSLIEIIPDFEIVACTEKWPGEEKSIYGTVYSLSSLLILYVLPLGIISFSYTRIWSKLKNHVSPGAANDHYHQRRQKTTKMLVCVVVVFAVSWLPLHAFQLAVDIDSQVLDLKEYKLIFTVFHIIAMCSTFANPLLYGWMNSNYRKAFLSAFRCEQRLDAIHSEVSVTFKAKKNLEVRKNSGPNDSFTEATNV
Procedure, shortened: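 Read-out is [125I]-PYY displacement from membranes of CHO/dhfr− cells stably transfected with human Y2R. Membranes were obtained by disrupting cells in a buffer of 10 mM NaHCO3, 5 mM EDTA and protease inhibitors.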

human Y2 receptor [2] = target: T1, human Y2 receptor; assay: Human Y2 Receptor G Protein Binding Assay (GBA), [35S]GTPγS; type: biochemical; settings: EC50 of test compound/EC50 of PYY(3-36) (PYY3-36 taken as 1), hY2R/CHO membrane fraction
Procedure, shortened: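 Agonism measured as [35S]GTPγS binding, read by GF/C filtration and scintillation counting after 120 min at room temperature, using human Y2 membranes at 1 μg protein/mL in pH 7.4 Tris/MgCl2/NaCl/GDP buffer. Compound serially diluted 100 μM–1 nM; EC50 normalized to PYY(3-36) (ratio = compound/PYY).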

Substance: Ac-[D-Pro24, Pya(4)26, Cha27, Aib28,31, Lys30, Phe(2Me)36]-PYY(23-36) (Ac-S[dP]R[4Pal][Cha][Aib]NK[Aib]TRQR[Phe(2-Me)]-NH2; SMILES CC(=O)N[C@@H](CO)C(=O)N1CCC[C@@H]1C(=O)N[C@@H](CCCNC(=N)N)C(=O)N[C@@H](Cc1ccncc1)C(=O)N[C@@H](CC1CCCCC1)C(=O)NC(C)(C)C(=O)N[C@@H](CC(N)=O)C(=O)N[C@@H](CCCCN)C(=O)NC(C)(C)C(=O)N[C@H](C(=O)N[C@@H](CCCNC(=N)N)C(=O)N[C@@H](CCC(N)=O)C(=O)N[C@@H](CCCNC(=N)N)C(=O)N[C@@H](Cc1ccccc1C)C(N)=O)[C@@H](C)O) [compound No. 257]
- RBA IC50 Ratio (human Y2 receptor [1]): 1.0
- GBA EC50 Ratio (human Y2 receptor [2]): 0.98

Substance: Ac-[D-Pro24, Pya(4)26, Cha27,36, D-Iva28, Lys30, Iva31]-PYY(23-36) (Ac-S[dP]R[4Pal][Cha][dIva]NK[Iva]TRQR[Cha]-NH2; SMILES CC[C@@](C)(NC(=O)[C@H](CC1CCCCC1)NC(=O)[C@H](Cc1ccncc1)NC(=O)[C@H](CCCNC(=N)N)NC(=O)[C@H]1CCCN1C(=O)[C@H](CO)NC(C)=O)C(=O)N[C@@H](CC(N)=O)C(=O)N[C@@H](CCCCN)C(=O)N[C@@](C)(CC)C(=O)N[C@H](C(=O)N[C@@H](CCCNC(=N)N)C(=O)N[C@@H](CCC(N)=O)C(=O)N[C@@H](CCCNC(=N)N)C(=O)N[C@@H](CC1CCCCC1)C(N)=O)[C@@H](C)O) [compound No. 248]
- RBA IC50 Ratio (human Y2 receptor [1]): 3.4
- GBA EC50 Ratio (human Y2 receptor [2]): 1.1

Substance: Ac-[D-Pro24, Pya(4)26, Cha27,36, Aib28,31, Har30]-PYY(23-36) (Ac-S[dP]R[4Pal][Cha][Aib]N[hArg][Aib]TRQR[Cha]-NH2; SMILES CC(=O)N[C@@H](CO)C(=O)N1CCC[C@@H]1C(=O)N[C@@H](CCCNC(=N)N)C(=O)N[C@@H](Cc1ccncc1)C(=O)N[C@@H](CC1CCCCC1)C(=O)NC(C)(C)C(=O)N[C@@H](CC(N)=O)C(=O)N[C@@H](CCCCNC(=N)N)C(=O)NC(C)(C)C(=O)N[C@H](C(=O)N[C@@H](CCCNC(=N)N)C(=O)N[C@@H](CCC(N)=O)C(=O)N[C@@H](CCCNC(=N)N)C(=O)N[C@@H](CC1CCCCC1)C(N)=O)[C@@H](C)O) [compound No. 277]
- RBA IC50 Ratio (human Y2 receptor [1]): 0.36
- GBA EC50 Ratio (human Y2 receptor [2]): 0.79

Substance: Ac-[Glu23, D-Pic(2)24, Cha27,28,36, Aib31]-PYY(23-36) (Ac-E[dPip]RH[Cha][Cha]NL[Aib]TRQR[Cha]-NH2; SMILES CC(=O)N[C@@H](CCC(=O)O)C(=O)N1CCCC[C@@H]1C(=O)N[C@@H](CCCNC(=N)N)C(=O)N[C@@H](Cc1c[nH]cn1)C(=O)N[C@@H](CC1CCCCC1)C(=O)N[C@@H](CC1CCCCC1)C(=O)N[C@@H](CC(N)=O)C(=O)N[C@@H](CC(C)C)C(=O)NC(C)(C)C(=O)N[C@H](C(=O)N[C@@H](CCCNC(=N)N)C(=O)N[C@@H](CCC(N)=O)C(=O)N[C@@H](CCCNC(=N)N)C(=O)N[C@@H](CC1CCCCC1)C(N)=O)[C@@H](C)O) [compound No. 120]
- RBA IC50 Ratio (human Y2 receptor [1]): 17
- GBA EC50 Ratio (human Y2 receptor [2]): 10

Substance: [D-Ser23, Abu26, Cha27,28,36, Aib31]-PYY(23-36) ([dS]LR[Abu][Cha][Cha]NL[Aib]TRQR[Cha]-NH2; N-terminus assumed; SMILES CC[C@H](NC(=O)[C@H](CCCNC(=N)N)NC(=O)[C@H](CC(C)C)NC(=O)[C@H](N)CO)C(=O)N[C@@H](CC1CCCCC1)C(=O)N[C@@H](CC1CCCCC1)C(=O)N[C@@H](CC(N)=O)C(=O)N[C@@H](CC(C)C)C(=O)NC(C)(C)C(=O)N[C@H](C(=O)N[C@@H](CCCNC(=N)N)C(=O)N[C@@H](CCC(N)=O)C(=O)N[C@@H](CCCNC(=N)N)C(=O)N[C@@H](CC1CCCCC1)C(N)=O)[C@@H](C)O) [compound No. 85]
- RBA IC50 Ratio (human Y2 receptor [1]): 15
- GBA EC50 Ratio (human Y2 receptor [2]): 11

Substance: Ac-[D-Pro24, Pya(4)26, Cha27,36, Aib28,31, Nle30]-PYY(23-36) (Ac-S[dP]R[4Pal][Cha][Aib]N[Nle][Aib]TRQR[Cha]-NH2; SMILES CCCC[C@H](NC(=O)[C@H](CC(N)=O)NC(=O)C(C)(C)NC(=O)[C@H](CC1CCCCC1)NC(=O)[C@H](Cc1ccncc1)NC(=O)[C@H](CCCNC(=N)N)NC(=O)[C@H]1CCCN1C(=O)[C@H](CO)NC(C)=O)C(=O)NC(C)(C)C(=O)N[C@H](C(=O)N[C@@H](CCCNC(=N)N)C(=O)N[C@@H](CCC(N)=O)C(=O)N[C@@H](CCCNC(=N)N)C(=O)N[C@@H](CC1CCCCC1)C(N)=O)[C@@H](C)O) [compound No. 267]
- RBA IC50 Ratio (human Y2 receptor [1]): 0.96
- GBA EC50 Ratio (human Y2 receptor [2]): 1.4

Substance: Ac-[D-Pro24, Pya(4)26, Cha27,36, D-Iva28,31, Lys30]-PYY(23-36) (Ac-S[dP]R[4Pal][Cha][dIva]NK[dIva]TRQR[Cha]-NH2; SMILES CC[C@@](C)(NC(=O)[C@H](CC1CCCCC1)NC(=O)[C@H](Cc1ccncc1)NC(=O)[C@H](CCCNC(=N)N)NC(=O)[C@H]1CCCN1C(=O)[C@H](CO)NC(C)=O)C(=O)N[C@@H](CC(N)=O)C(=O)N[C@@H](CCCCN)C(=O)N[C@](C)(CC)C(=O)N[C@H](C(=O)N[C@@H](CCCNC(=N)N)C(=O)N[C@@H](CCC(N)=O)C(=O)N[C@@H](CCCNC(=N)N)C(=O)N[C@@H](CC1CCCCC1)C(N)=O)[C@@H](C)O) [compound No. 247]
- RBA IC50 Ratio (human Y2 receptor [1]): 0.70
- GBA EC50 Ratio (human Y2 receptor [2]): 1.6

Substance: Cyclohexanecarbonyl-[Cha27,36, Ile28,31, Asn(Me)29]-PYY(25-36) (Cyclohexanecarbonyl-RH[Cha]I[Asn(Me)″]LITRQR[Cha]-NH2; SMILES CC[C@H](C)[C@H](NC(=O)[C@H](CC1CCCCC1)NC(=O)[C@H](Cc1c[nH]cn1)NC(=O)[C@H](CCCNC(=N)N)NC(=O)C1CCCCC1)C(=O)N[C@@H](CC(=O)NC)C(=O)N[C@@H](CC(C)C)C(=O)N[C@H](C(=O)N[C@H](C(=O)N[C@@H](CCCNC(=N)N)C(=O)N[C@@H](CCC(N)=O)C(=O)N[C@@H](CCCNC(=N)N)C(=O)N[C@@H](CC1CCCCC1)C(N)=O)[C@@H](C)O)[C@@H](C)CC) [compound No. 75]
- RBA IC50 Ratio (human Y2 receptor [1]): 76
- GBA EC50 Ratio (human Y2 receptor [2]): 37

Substance: Ac-[D-Pro24, Pya(4)26, Cha27,36, Aib28,31, Lys(Hexyl)30]-PYY(23-36) [compound No. 279]
- RBA IC50 Ratio (human Y2 receptor [1]): 1.0
- GBA EC50 Ratio (human Y2 receptor [2]): 1.3

Substance: Benzoyl-[Cha27,28,36, Aib31]-PYY(25-36) (Bz-RH[Cha][Cha]NL[Aib]TRQR[Cha]-NH2; SMILES CC(C)C[C@H](NC(=O)[C@H](CC(N)=O)NC(=O)[C@H](CC1CCCCC1)NC(=O)[C@H](CC1CCCCC1)NC(=O)[C@H](Cc1c[nH]cn1)NC(=O)[C@H](CCCNC(=N)N)NC(=O)c1ccccc1)C(=O)NC(C)(C)C(=O)N[C@H](C(=O)N[C@@H](CCCNC(=N)N)C(=O)N[C@@H](CCC(N)=O)C(=O)N[C@@H](CCCNC(=N)N)C(=O)N[C@@H](CC1CCCCC1)C(N)=O)[C@@H](C)O) [compound No. 64]
- RBA IC50 Ratio (human Y2 receptor [1]): 28
- GBA EC50 Ratio (human Y2 receptor [2]): 18

Substance: Piperidinocarbonyl-[Glu23, D-Pro24, Pya(4)26, Cha27,36, Aib28,31, Lys30]-PYY(23-36) (piperidinocarbonyl-E[dP]R[4Pal][Cha][Aib]NK[Aib]TRQR[Cha]-NH2) [compound No. 193]
- RBA IC50 Ratio (human Y2 receptor [1]): 3.3
- GBA EC50 Ratio (human Y2 receptor [2]): 2.4

Substance: Ac-[D-Pro24, Ala(4Pip)25, Pya(4)26, Cha27,36, Aib28,31, Lys30]-PYY(23-36) [compound No. 311] (Ac-S[dP][Ala(4Pip)][4Pal][Cha][Aib]NK[Aib]TRQR[Cha]-NH2; also: Ala(4Pip) configuration not fixed (D or L), former peak)
- RBA IC50 Ratio (human Y2 receptor [1]): 18
- GBA EC50 Ratio (human Y2 receptor [2]): 14

Substance: Ac-[Aad23, D-Pro24, Cha27,28,36, Aib31]-PYY(23-36) (Ac-[Aad][dP]RH[Cha][Cha]NL[Aib]TRQR[Cha]-NH2; SMILES CC(=O)N[C@@H](CCCC(=O)O)C(=O)N1CCC[C@@H]1C(=O)N[C@@H](CCCNC(=N)N)C(=O)N[C@@H](Cc1c[nH]cn1)C(=O)N[C@@H](CC1CCCCC1)C(=O)N[C@@H](CC1CCCCC1)C(=O)N[C@@H](CC(N)=O)C(=O)N[C@@H](CC(C)C)C(=O)NC(C)(C)C(=O)N[C@H](C(=O)N[C@@H](CCCNC(=N)N)C(=O)N[C@@H](CCC(N)=O)C(=O)N[C@@H](CCCNC(=N)N)C(=O)N[C@@H](CC1CCCCC1)C(N)=O)[C@@H](C)O) [compound No. 159]
- RBA IC50 Ratio (human Y2 receptor [1]): 2.8
- GBA EC50 Ratio (human Y2 receptor [2]): 1.2

Substance: Ac-[Glu23, D-Pro24, Nle25, Pya(4)26, Cha27,28,36, Lys30, Aib31]-PYY(23-36) (Ac-E[dP][Nle][4Pal][Cha][Cha]NK[Aib]TRQR[Cha]-NH2; SMILES CCCC[C@H](NC(=O)[C@H]1CCCN1C(=O)[C@H](CCC(=O)O)NC(C)=O)C(=O)N[C@@H](Cc1ccncc1)C(=O)N[C@@H](CC1CCCCC1)C(=O)N[C@@H](CC1CCCCC1)C(=O)N[C@@H](CC(N)=O)C(=O)N[C@@H](CCCCN)C(=O)NC(C)(C)C(=O)N[C@H](C(=O)N[C@@H](CCCNC(=N)N)C(=O)N[C@@H](CCC(N)=O)C(=O)N[C@@H](CCCNC(=N)N)C(=O)N[C@@H](CC1CCCCC1)C(N)=O)[C@@H](C)O) [compound No. 172]
- RBA IC50 Ratio (human Y2 receptor [1]): 2.3
- GBA EC50 Ratio (human Y2 receptor [2]): 1.3
